Experimental data as given in the supplement of paper PMC7125110.
Variants at the floor of the assay were thinned out.

B1: glmS ribozyme (parent)
chain: AUAAAAGCGCCAGAACUACAGAAAUGUAGUUGACGAGGAGGAGGUUUAUCGAAUUUUCGGCGGAUGCCUCCAAA

What was measured:
Conditions in all cases: with glucosamine-6-phosphate
glucosamine-6-phosphate [1] = variants of: B1; test: self-cleavage kobs at 40 uM GlcN6P; higher = faster cleavage; RNA array
Summary of the method: (§1)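 Glucosamine-6-phosphate, from 40 μM to 10 mM in HEPES/KCl/Mg(OAc)2 buffer, was flowed over sequenced MiSeq chips carrying barcoded ribozyme variants transcribed in situ by E. coli RNA polymerase. A hybridised Cy3 probe tracked the variants at 37 °C as tiles were imaged over ~14 h. kobs, kcat and KM were obtained by fitting normalised per-tile medians to exponential decays and then applying weighted Michaelis–Menten fits across concentrations.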

glucosamine-6-phosphate [2] = variants of: B1; test: self-cleavage kobs at 160 uM GlcN6P; higher = faster cleavage; RNA array
Summary of the method: as §1

glucosamine-6-phosphate [3] = variants of: B1; test: self-cleavage kobs at 640 uM GlcN6P; higher = faster cleavage; RNA array
Summary of the method: as §1

glucosamine-6-phosphate [4] = variants of: B1; test: self-cleavage kobs at 2500 uM GlcN6P; higher = faster cleavage; RNA array
Summary of the method: as §1

glucosamine-6-phosphate [5] = variants of: B1; test: self-cleavage kobs at 10000 uM GlcN6P; higher = faster cleavage; RNA array
Summary of the method: as §1

G9A A33C
< 1e-05 s⁻¹: self-cleavage kobs at 40 uM GlcN6P (glucosamine-6-phosphate [1]) | self-cleavage kobs at 160 uM GlcN6P (glucosamine-6-phosphate [2]) | self-cleavage kobs at 640 uM GlcN6P (glucosamine-6-phosphate [3]) | self-cleavage kobs at 2500 uM GlcN6P (glucosamine-6-phosphate [4]) | self-cleavage kobs at 10000 uM GlcN6P (glucosamine-6-phosphate [5])

G9A A42C
< 1e-05 s⁻¹: self-cleavage kobs at 40 uM GlcN6P (glucosamine-6-phosphate [1]) | self-cleavage kobs at 160 uM GlcN6P (glucosamine-6-phosphate [2]) | self-cleavage kobs at 640 uM GlcN6P (glucosamine-6-phosphate [3]) | self-cleavage kobs at 2500 uM GlcN6P (glucosamine-6-phosphate [4])

G7U U49A
< 1e-05 s⁻¹: self-cleavage kobs at 40 uM GlcN6P (glucosamine-6-phosphate [1]) | self-cleavage kobs at 160 uM GlcN6P (glucosamine-6-phosphate [2]) | self-cleavage kobs at 640 uM GlcN6P (glucosamine-6-phosphate [3]) | self-cleavage kobs at 2500 uM GlcN6P (glucosamine-6-phosphate [4]) | self-cleavage kobs at 10000 uM GlcN6P (glucosamine-6-phosphate [5])

G9C A14U G51A C70G
< 1e-05 s⁻¹: self-cleavage kobs at 40 uM GlcN6P (glucosamine-6-phosphate [1])

C8U G44A
< 1e-05 s⁻¹: self-cleavage kobs at 40 uM GlcN6P (glucosamine-6-phosphate [1]) | self-cleavage kobs at 160 uM GlcN6P (glucosamine-6-phosphate [2]) | self-cleavage kobs at 640 uM GlcN6P (glucosamine-6-phosphate [3]) | self-cleavage kobs at 2500 uM GlcN6P (glucosamine-6-phosphate [4])

C8U G44U
< 1e-05 s⁻¹: self-cleavage kobs at 40 uM GlcN6P (glucosamine-6-phosphate [1]) | self-cleavage kobs at 160 uM GlcN6P (glucosamine-6-phosphate [2]) | self-cleavage kobs at 640 uM GlcN6P (glucosamine-6-phosphate [3]) | self-cleavage kobs at 2500 uM GlcN6P (glucosamine-6-phosphate [4]) | self-cleavage kobs at 10000 uM GlcN6P (glucosamine-6-phosphate [5])

C8G G37C C67G
< 1e-05 s⁻¹: self-cleavage kobs at 40 uM GlcN6P (glucosamine-6-phosphate [1]) | self-cleavage kobs at 2500 uM GlcN6P (glucosamine-6-phosphate [4]) | self-cleavage kobs at 10000 uM GlcN6P (glucosamine-6-phosphate [5])

G9A G38A
< 1e-05 s⁻¹: self-cleavage kobs at 40 uM GlcN6P (glucosamine-6-phosphate [1]) | self-cleavage kobs at 10000 uM GlcN6P (glucosamine-6-phosphate [5])

G9A G38C
< 1e-05 s⁻¹: self-cleavage kobs at 40 uM GlcN6P (glucosamine-6-phosphate [1]) | self-cleavage kobs at 160 uM GlcN6P (glucosamine-6-phosphate [2]) | self-cleavage kobs at 640 uM GlcN6P (glucosamine-6-phosphate [3])

G9C G40A C50A
< 1e-05 s⁻¹: self-cleavage kobs at 40 uM GlcN6P (glucosamine-6-phosphate [1]) | self-cleavage kobs at 10000 uM GlcN6P (glucosamine-6-phosphate [5])

C8G A64C
< 1e-05 s⁻¹: self-cleavage kobs at 40 uM GlcN6P (glucosamine-6-phosphate [1]) | self-cleavage kobs at 160 uM GlcN6P (glucosamine-6-phosphate [2]) | self-cleavage kobs at 2500 uM GlcN6P (glucosamine-6-phosphate [4]) | self-cleavage kobs at 10000 uM GlcN6P (glucosamine-6-phosphate [5])

C8G A64G
< 1e-05 s⁻¹: self-cleavage kobs at 40 uM GlcN6P (glucosamine-6-phosphate [1]) | self-cleavage kobs at 160 uM GlcN6P (glucosamine-6-phosphate [2]) | self-cleavage kobs at 2500 uM GlcN6P (glucosamine-6-phosphate [4]) | self-cleavage kobs at 10000 uM GlcN6P (glucosamine-6-phosphate [5])

C8G U30A U31C
< 1e-05 s⁻¹: self-cleavage kobs at 40 uM GlcN6P (glucosamine-6-phosphate [1]) | self-cleavage kobs at 10000 uM GlcN6P (glucosamine-6-phosphate [5])

G9A A14C G37C G38U U49C U69A
< 1e-05 s⁻¹: self-cleavage kobs at 40 uM GlcN6P (glucosamine-6-phosphate [1])

C8A A52C
< 1e-05 s⁻¹: self-cleavage kobs at 40 uM GlcN6P (glucosamine-6-phosphate [1]) | self-cleavage kobs at 160 uM GlcN6P (glucosamine-6-phosphate [2]) | self-cleavage kobs at 640 uM GlcN6P (glucosamine-6-phosphate [3]) | self-cleavage kobs at 10000 uM GlcN6P (glucosamine-6-phosphate [5])

C8G G32A G59U
< 1e-05 s⁻¹: self-cleavage kobs at 40 uM GlcN6P (glucosamine-6-phosphate [1]) | self-cleavage kobs at 2500 uM GlcN6P (glucosamine-6-phosphate [4]) | self-cleavage kobs at 10000 uM GlcN6P (glucosamine-6-phosphate [5])

C8G A15U G62C
< 1e-05 s⁻¹: self-cleavage kobs at 40 uM GlcN6P (glucosamine-6-phosphate [1]) | self-cleavage kobs at 640 uM GlcN6P (glucosamine-6-phosphate [3])

C8U C61U
< 1e-05 s⁻¹: self-cleavage kobs at 40 uM GlcN6P (glucosamine-6-phosphate [1]) | self-cleavage kobs at 160 uM GlcN6P (glucosamine-6-phosphate [2]) | self-cleavage kobs at 640 uM GlcN6P (glucosamine-6-phosphate [3]) | self-cleavage kobs at 2500 uM GlcN6P (glucosamine-6-phosphate [4]) | self-cleavage kobs at 10000 uM GlcN6P (glucosamine-6-phosphate [5])

C8G G29U
< 1e-05 s⁻¹: self-cleavage kobs at 40 uM GlcN6P (glucosamine-6-phosphate [1]) | self-cleavage kobs at 160 uM GlcN6P (glucosamine-6-phosphate [2]) | self-cleavage kobs at 640 uM GlcN6P (glucosamine-6-phosphate [3]) | self-cleavage kobs at 2500 uM GlcN6P (glucosamine-6-phosphate [4]) | self-cleavage kobs at 10000 uM GlcN6P (glucosamine-6-phosphate [5])

G9C G13U G41U G63U
< 1e-05 s⁻¹: self-cleavage kobs at 40 uM GlcN6P (glucosamine-6-phosphate [1]) | self-cleavage kobs at 10000 uM GlcN6P (glucosamine-6-phosphate [5])
